Results as given in patent US20220040297A1.
Positions count from the first letter of the chain named. Names may count otherwise. One block for each binder: values may come before it.

Columns and labels:
[1] = target: CD3ε homodimer protein (human) (UniProt P07766); experiment: SPR, immobilized CD3ε homodimer
[2] = target: CD3ε homodimer protein (human) (UniProt P07766); experiment: SPR, CD3e immobilized
[3] = target: CD3ε homodimer protein (human) (UniProt P07766); experiment: SPR, CD3ε homodimer on chip

Chain of CD3ε homodimer protein (human) (P07766 23-126 limits assumed): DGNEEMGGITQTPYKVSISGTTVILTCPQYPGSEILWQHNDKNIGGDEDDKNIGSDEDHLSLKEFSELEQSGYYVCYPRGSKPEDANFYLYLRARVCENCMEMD

ratio of amounts bound (vs GLS3000) [1]: 0.03 | KD ratio to GLS3000 [2]: 3.43
B1: GLS3000 H27dM (antibody, IgG1, name in Kabat numbering, V domains shown)
VH: QVQLVESGGGVVQPGRSLRLSCAASGFTFSNAWMHWVRQAPGKGLEWVAQIKAKSNNYATYYAESVKGRFTISRDDSKNSLYLQMNSLKTEDTAVYYCRYVHYGAYYGVDAWGQGTTVTVSS
VL: DIVMTQSPLSLPVTPGEPASISCRSSQSLVMSNRNTYLHWYQQKPGQAPRLLIYKVSNRFSGVPDRFSGSGSGTDFTLKISRVEAEDVGVYYCGQGTQVPYTFGQGTKLEIK

ratio of amounts bound vs CE115HA000 [3]: 9.28
B2: CE115HA000 Y97S (antibody, name in Kabat numbering, V domains shown)
VH: B1 VH with Y103S
VL: B1 VL with M31H

KD ratio to GLS3000 [2]: 13600
B3: GLS3000 H27dD (antibody, IgG1, name in Kabat numbering, V domains shown)
VH: B1 VH
VL: B1 VL with M31D

ratio of amounts bound vs CE115HA000 [3]: 9.24
B4: CE115HA000 V95E (antibody, name in Kabat numbering, V domains shown)
VH: B1 VH with V101E
VL: B1 VL with M31H

ratio of amounts bound vs CE115HA000 [3]: 9.24
B5: CE115HA000 D101R (antibody, name in Kabat numbering, V domains shown)
VH: B1 VH with D110R
VL: B1 VL with M31H

ratio of amounts bound vs CE115HA000 [3]: 9.27
B6: CE115HA000 Y97R (antibody, name in Kabat numbering, V domains shown)
VH: B1 VH with Y103R
VL: B1 VL with M31H
